Results taken from patent US7976843B2, “Method for screening peptides for use in immunotherapy” (Institut National de la Santa et de la Recherche Medicale …, priority 2000, dated 2011).

Target: HLA A2.1 molecule (Homo sapiens, UniProt P04439, D140Y/D185E/D98H/E176V/E277Q/G131W/G231S/I119V/I121R/I166T/I218V/L300P/L318F/N151K/N90K/P208A/P217A/Q86G/Q94H/R138H/R169H/T345S)
Assay: Stability of the peptide/HLA A2.1 complex (DC50) on T2 cells, flow cytometry
Format: binding
Conditions: […]; arrow in neighbouring cell gives direction
Experimental: For each incubation time, the cells are then labeled, as indicated above, with the BB7.2 antibody, and analyzed by flow cytometry in order to evaluate the amount of peptide/HLA A2.1 complex present at their surface. […] The DC50 (dissociation complex: DC) is defined as being the time required for the loss of 50% of the HLA A2.1/peptide complexes stabilized at t=0.

GILGPVFTL [Flu M58, reference compound]
DC50 Y1-DC50 WT: =0 hours
